Reference: the supplement of paper PMC7125110
± gives the standard error. For some assays here: This sample holds only a part of the variants without activity.

B1: glmS ribozyme (parent)
chain: AUAAAAGCGCCAGAACUACAGAAAUGUAGUUGACGAGGAGGAGGUUUAUCGAAUUUUCGGCGGAUGCCUCCAAA

What was measured:
Conditions in all cases: with glucosamine-6-phosphate
glucosamine-6-phosphate [1] = variants of: B1; experiment: kcat; higher = faster cleavage; RNA array
How it was run: (§1)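 A hybridised Cy3 probe tracked barcoded ribozyme variants, transcribed in situ by E. coli RNA polymerase on sequenced MiSeq chips, at 37 °C. The variants received 40 μM to 10 mM glucosamine-6-phosphate in HEPES/KCl/Mg(OAc)2 buffer. kobs came from decay fits and kcat and KM from weighted Michaelis–Menten fits.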

glucosamine-6-phosphate [2] = variants of: B1; experiment: self-cleavage kobs at 640 uM GlcN6P; higher = faster cleavage; RNA array
How it was run: as §1

glucosamine-6-phosphate [3] = variants of: B1; experiment: self-cleavage kobs at 2500 uM GlcN6P; higher = faster cleavage; RNA array
How it was run: as §1

glucosamine-6-phosphate [4] = variants of: B1; experiment: KM; higher = weaker cofactor use; RNA array
How it was run: as §1

glucosamine-6-phosphate [5] = variants of: B1; experiment: self-cleavage kobs at 40 uM GlcN6P; higher = faster cleavage; RNA array
How it was run: as §1

glucosamine-6-phosphate [6] = variants of: B1; experiment: self-cleavage kobs at 160 uM GlcN6P; higher = faster cleavage; RNA array
How it was run: as §1

glucosamine-6-phosphate [7] = variants of: B1; experiment: self-cleavage kobs at 10000 uM GlcN6P; higher = faster cleavage; RNA array
How it was run: as §1

| Variant | kcat (glucosamine-6-phosphate [1]) [s⁻¹] | self-cleavage kobs at 640 uM GlcN6P (glucosamine-6-phosphate [2]) [s⁻¹] | self-cleavage kobs at 2500 uM GlcN6P (glucosamine-6-phosphate [3]) [s⁻¹] | KM (glucosamine-6-phosphate [4]) [µM] | self-cleavage kobs at 40 uM GlcN6P (glucosamine-6-phosphate [5]) [s⁻¹] | self-cleavage kobs at 160 uM GlcN6P (glucosamine-6-phosphate [6]) [s⁻¹] | self-cleavage kobs at 10000 uM GlcN6P (glucosamine-6-phosphate [7]) [s⁻¹] |
| --- | --- | --- | --- | --- | --- | --- | --- |
| G38A C58U C68G | 4.92e-05 ± 1.7e-05 | 5.5e-05 ± 2.5e-05 | 6.16e-05 ± 2.5e-05 | – | – | – | – |
| G32A U49A U54G G59A C67U | 1.76e-05 ± 5.6e-06 | – | – | – | – | – | – |
| U31C | 0.00939 ± 0.0013 | 0.00208 ± 7.4e-05 | 0.00415 ± 0.00014 | 2370 ± 430 | 0.000168 ± 2.9e-06 | 0.000489 ± 1.7e-05 | 0.00805 ± 0.00018 |
| G32C G51U | < 1e-05 | – | – | – | – | – | – |
| U47G U55G | 0.00601 ± 0.0021 | 0.00195 ± 0.00043 | 0.00249 ± 0.001 | – | 0.000247 ± 4.9e-05 | – | 0.00706 ± 0.0012 |
| G32A C70G | 0.000111 ± 1.6e-05 | 9.43e-05 ± 1.5e-05 | 6.07e-05 ± 2.4e-05 | – | – | 2.97e-05 ± 1.1e-05 | 0.00011 ± 1.3e-05 |
| G13U U30G | 0.000187 ± 3.9e-05 | 2.49e-05 ± 9.4e-06 | 0.000105 ± 1.2e-05 | 2660 ± 1200 | – | – | 0.000136 ± 2e-05 |
| C10U A52U C68G | 0.000101 ± 4.6e-05 | – | 6.27e-05 ± 2.5e-05 | – | – | – | – |
| A39G A52G | 0.00286 ± 0.00015 | 0.000407 ± 8.1e-05 | 0.00108 ± 0.0003 | 3960 ± 330 | – | 0.000117 ± 3.5e-05 | 0.00205 ± 0.00028 |
| A53G U57A | 0.000309 ± 2.3e-05 | 4.7e-05 ± 1.1e-05 | 0.000134 ± 2.3e-05 | 3400 ± 490 | – | – | 0.00023 ± 2.9e-05 |
| A36U C50G U69G | 0.000296 ± 5.6e-05 | 0.00036 ± 0.00012 | 0.000275 ± 0.00013 | – | 0.000397 ± 0.00012 | 0.000219 ± 6e-05 | 0.000368 ± 8.1e-05 |
| U54G U57G | 3.71e-05 ± 3.7e-06 | – | – | 1500 ± 710 | – | – | 3.21e-05 ± 1.2e-05 |
| G43A U45A | 5.51e-05 ± 7.6e-07 | – | 2.63e-05 ± 1.1e-05 | 2720 ± 100 | – | – | 4.33e-05 ± 1.3e-05 |
| C16U A42U | 0.000129 ± 1e-05 | 4.79e-05 ± 1.9e-05 | 0.000107 ± 2.2e-05 | 903 ± 300 | – | – | 0.000115 ± 1.7e-05 |
| A14C A52U | 8.73e-05 ± 5e-06 | – | 5.13e-05 ± 1.4e-05 | 1920 ± 430 | – | – | 7.28e-05 ± 1e-05 |
| G41A C71U | 0.000308 ± 7.8e-05 | 0.000132 ± 1.5e-05 | 0.000414 ± 5e-05 | 697 ± 340 | 3e-05 ± 6.9e-06 | 5.5e-05 ± 7.2e-06 | 0.00026 ± 3e-05 |
| G32A G40C A48U | < 1e-05 | – | – | – | < 1e-05 | – | – |
